From PMC10338078

Molecular target: Drosophila Deltex WWE2 domain (residues 26-261; Dx1A*) (Drosophila) (UniProt Q23985)
Assay: AUC

UniProt Q23985, sequence (Q23985 26-261): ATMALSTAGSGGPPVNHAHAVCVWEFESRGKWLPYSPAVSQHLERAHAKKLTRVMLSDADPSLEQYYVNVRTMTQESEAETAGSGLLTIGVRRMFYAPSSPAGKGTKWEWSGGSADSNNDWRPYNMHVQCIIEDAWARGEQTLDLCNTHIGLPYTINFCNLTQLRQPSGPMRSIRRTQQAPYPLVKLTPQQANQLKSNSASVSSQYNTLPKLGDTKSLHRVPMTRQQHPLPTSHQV

Drosophila Notch ANK domain (Nank1-7*) R2007A (from UniProt P07207 1901-2048) (domain or fragment)
weight-averaged sedimentation coefficient (sw) of a 45 μM 1:1 mixture: 3.51e-13 s
